Measured values taken from patent US20050123549A1.

Legend:
[1] = molecular target: Muc1 mucin carrying the CA6 sialoglycotope (human) (UniProt P15941); assay: flow cytometry on CaOV3 cells
[2] = molecular target: Muc1 mucin carrying the CA6 sialoglycotope (human) (UniProt P15941); assay: flow cytometry on HeLa cells
[3] = molecular target: Muc1 mucin carrying the CA6 sialoglycotope (human) (UniProt P15941); assay: flow cytometry on HeLa cells, apparent Kd
[4] = molecular target: Muc1 mucin carrying the CA6 sialoglycotope (human) (UniProt P15941); assay: flow cytometry on KB cells, apparent Kd
[5] = molecular target: Muc1 on DS6 negative & CM1 positive cell lines (KLE, OVCAR3, SKOV3), without the CA6 epitope (human) (UniProt P15941); assay: flow cytometry on OVCAR3 cells
[6] = molecular target: Muc1 mucin carrying the CA6 sialoglycotope (human) (UniProt P15941); assay: flow cytometry on BT549 cells, apparent Kd
[7] = molecular target: Muc1 on DS6 negative & CM1 positive cell lines (KLE, OVCAR3, SKOV3), without the CA6 epitope (human) (UniProt P15941); assay: flow cytometry on KLE cells
[8] = molecular target: Muc1 mucin carrying the CA6 sialoglycotope (human) (UniProt P15941); assay: flow cytometry on CaOV3 cells, apparent Kd
[9] = molecular target: Muc1 mucin carrying the CA6 sialoglycotope (human) (UniProt P15941); assay: flow cytometry on MCF7 cells, apparent Kd
[10] = molecular target: Muc1 mucin carrying the CA6 sialoglycotope (human) (UniProt P15941); assay: flow cytometry on MCF7 cells
[11] = molecular target: Muc1 mucin carrying the CA6 sialoglycotope (human) (UniProt P15941); assay: flow cytometry on BT549 cells
[12] = molecular target: Muc1 on DS6 negative & CM1 positive cell lines (KLE, OVCAR3, SKOV3), without the CA6 epitope (human) (UniProt P15941); assay: flow cytometry on SKOV3 cells, apparent Kd
[13] = molecular target: Muc1 on DS6 negative & CM1 positive cell lines (KLE, OVCAR3, SKOV3), without the CA6 epitope (human) (UniProt P15941); assay: flow cytometry on KLE cells, apparent Kd
[14] = molecular target: Muc1 on DS6 negative & CM1 positive cell lines (KLE, OVCAR3, SKOV3), without the CA6 epitope (human) (UniProt P15941); assay: flow cytometry on OVCAR3 cells, apparent Kd
[15] = molecular target: Muc1 on DS6 negative & CM1 positive cell lines (KLE, OVCAR3, SKOV3), without the CA6 epitope (human) (UniProt P15941); assay: flow cytometry on SKOV3 cells
[16] = molecular target: Muc1 mucin carrying the CA6 sialoglycotope (human) (UniProt P15941); assay: flow cytometry on KB cells

MMF (maximum mean relative fluorescence) [1]: 1030 | MMF (maximum mean relative fluorescence) [2]: 335 | Kd [3]: 2.91 nM | Kd [4]: 5.34 nM | MMF (maximum mean relative fluorescence) [5]: 192 | Kd [6]: 6.06 nM | MMF (maximum mean relative fluorescence) [7]: 562 | Kd [8]: 7.48 nM | Kd [9]: 8.69 nM | MMF (maximum mean relative fluorescence) [10]: 1020 | MMF (maximum mean relative fluorescence) [11]: 188 | Kd [12]: 6.25 nM | Kd [13]: 8.16 nM | Kd [14]: 5.95 nM | MMF (maximum mean relative fluorescence) [15]: 49.4 | MMF (maximum mean relative fluorescence) [16]: 338
Substance: CM1 antibody (Muc1 VNTR antibody)
